Earlier results in paper PMC11858487.

Molecular target: EGFR (Homo sapiens) (UniProt P00533)

- Kd: 76.5 nM
Substance: [99mTc]Tc-SYPIPDT-ECG-TAMRA
